This is an account of results in patent US20140315817A1.

This test deals with FLAG-tagged, single-chain human FcRn (human) (UniProt P61769). Nature of the test: ELISA at pH 5.5, HSA variant coated, FLAG-tagged single-chain FcRn titrated; column '~Kd at pH 5.5', rank 13; the sheet gives the mutation of HSA-18 as V424I. For orientation: ELISA stands for enzyme-linked immunosorbent assay.

As usually defined, the Kd is a measure of binding affinity in units of concentration. Low values mean tighter binding, high ones weaker binding.

Chain of FLAG-tagged, single-chain human FcRn (human) (P61769 other isoform, or with tags, fused parts or gaps limits assumed): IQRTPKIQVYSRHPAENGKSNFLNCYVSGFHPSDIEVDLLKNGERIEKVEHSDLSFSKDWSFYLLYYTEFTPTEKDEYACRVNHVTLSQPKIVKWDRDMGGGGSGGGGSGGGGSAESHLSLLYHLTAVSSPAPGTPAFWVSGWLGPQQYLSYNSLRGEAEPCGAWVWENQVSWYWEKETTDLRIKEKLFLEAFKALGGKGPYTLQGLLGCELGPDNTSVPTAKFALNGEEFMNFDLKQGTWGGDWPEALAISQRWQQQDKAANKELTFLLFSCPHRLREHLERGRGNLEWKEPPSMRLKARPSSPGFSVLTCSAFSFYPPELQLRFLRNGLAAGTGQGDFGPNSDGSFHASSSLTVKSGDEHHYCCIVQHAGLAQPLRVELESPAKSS

“hsa-18: full length HSA V241I (from UniProt P02768 25-609)” gave a Kd above 100 nM.
